Results from patent US20150010575A1 (SAMSUNG ELECTRONICS, published 2015).

Target: T1, human c-Met/Fc fusion protein (R&D Systems) (human, UniProt P08581 25-932)
T1 construct: Bought from R&D Systems; Coated on microtiter plates at 2 ug/mL; also called human c-Met/Fc protein; not shown: Fc part of the bought fusion protein; not described
Experiment: ELISA, human c-Met/Fc coated at 2 ug/mL, hybridoma culture, anti-mouse IgG-HRP
Method: Human c-Met/Fc fusion protein was seeded in an amount of 50 μL (2 μg/mL)/well to microtiter plates and allowed to adhere to the surface of each well. The antibody that remained unbound was removed by washing.
The hybridoma cell culture obtained in Reference Example 1.1.2 was added in an amount of 50 μL to each well of the plates and incubated for 1 hour. The cells remaining unreacted were washed out with a sufficient amount of Tris-buffered saline and Tween 20 (TBST). Goat anti-mouse IgG-horseradish peroxidase (HRP) was added to the plates and incubated for 1 hour at room temperature. The plates were washed with a sufficient amount of TBST, followed by reacting the peroxidase with a substrate (OPD). Absorbance at 450 nm was measured on an ELISA reader.

T1 sequence (P08581 25-932 limits assumed): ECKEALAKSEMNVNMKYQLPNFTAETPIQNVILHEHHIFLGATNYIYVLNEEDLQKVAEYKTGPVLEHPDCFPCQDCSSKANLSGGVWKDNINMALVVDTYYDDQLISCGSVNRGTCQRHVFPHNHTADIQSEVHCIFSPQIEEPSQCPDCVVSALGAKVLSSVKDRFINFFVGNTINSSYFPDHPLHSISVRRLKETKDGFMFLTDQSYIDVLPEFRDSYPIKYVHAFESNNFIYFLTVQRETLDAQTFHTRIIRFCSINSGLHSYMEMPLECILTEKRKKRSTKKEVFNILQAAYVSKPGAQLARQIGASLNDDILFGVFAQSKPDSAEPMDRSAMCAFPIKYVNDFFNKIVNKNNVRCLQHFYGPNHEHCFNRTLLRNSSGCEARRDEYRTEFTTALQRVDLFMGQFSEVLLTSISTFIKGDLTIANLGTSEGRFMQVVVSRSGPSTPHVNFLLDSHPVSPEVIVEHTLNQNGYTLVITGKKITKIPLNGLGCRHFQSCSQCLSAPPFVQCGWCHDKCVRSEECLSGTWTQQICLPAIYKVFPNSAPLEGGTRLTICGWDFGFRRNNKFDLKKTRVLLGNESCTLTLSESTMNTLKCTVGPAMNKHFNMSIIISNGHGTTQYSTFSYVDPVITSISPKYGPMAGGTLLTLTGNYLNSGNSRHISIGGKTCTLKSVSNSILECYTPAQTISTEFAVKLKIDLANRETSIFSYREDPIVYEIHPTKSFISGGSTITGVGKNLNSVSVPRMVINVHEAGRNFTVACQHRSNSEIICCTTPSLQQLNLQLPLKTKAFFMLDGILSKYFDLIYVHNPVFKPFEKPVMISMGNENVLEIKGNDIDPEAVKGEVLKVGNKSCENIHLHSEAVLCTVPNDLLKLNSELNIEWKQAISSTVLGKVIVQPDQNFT

binding result: binds
B1: AbF46, a mouse antibody to c-Met (antibody, V domains shown)
VH: EVKLVESGGGLVQPGGSLRLSCATSGFTFTDYYMSWVRQPPGKALEWLGFIRNKANGYTTEYSASVKGRFTISRDNSQSILYLQMDTLRAEDSATYYCARDNWFAYWGQGTLVTVSA
VL: DILMTQSPSSLTVSAGEKVTMSCKSSQSLLASGNQNNYLAWHQQKPGRSPKMLIIWASTRVSGVPDRFIGSGSGTDFTLTINSVQAEDLAVYYCQQSYSAPLTFGAGTKLELK
notes: Mouse monoclonal antibody, tested as hybridoma culture supernatant in the selection ELISA; also called monoclonal antibody of hybridoma KCLRF-BP-00220
